{"source": "patent US20250195679A1", "about": "(SHANGHAI HUAOTA BIOPHARMACEUTICAL, published 2025)", "binders": {"B1": {"name": "900698 antibody (antibody, V domains shown)", "VH": "QVQLVESGGGLVKPGGSLRLSCAASGFTFSKYAMSWIRQAPGKGLEWVAEISSGGGYINYADSVKGRFTISRDNAKNSLYLQMNSLRAEDTAVYYCARAIYYYGSSYNYYAMDYWGQGTTVTVSS", "VL": "DIQMTQSPSSLSASVGDRVTITCRASQDVGTAEAWYQQKPGKAPKLLIYWASTRHTGVPSRFSGSGSGTDFTLTISSLQPEDFATYYCQQYSSYPLTFGQGTKLEIK", "notes": "embodiments say they may derive from human IgG1 and human Ig kappa; It was detected with anti-human Fc and captured on protein A; also called 900698 naked antibody; naked antibody 900698"}, "B2": {"name": "CD73 antibody-MP2-VC-PAB-DMEDA-PEG-SN38 (antibody, V domains shown)", "VH": "B1 VH", "VL": "B1 VL", "modifications": "SN-38 conjugated through MP2-VC-PAB-DMEDA-PEG linker by cysteine conjugation; DAR about 7.8 for the whole antibody; conjugated cysteines not named", "notes": "the constant regions that carry the conjugated cysteines are not; also called antibody-drug conjugate 2"}, "B3": {"name": "CD73 antibody-Mc-VC-PAB-DMEDA-PEG-SN38 (antibody, V domains shown)", "VH": "B1 VH", "VL": "B1 VL", "modifications": "SN-38 conjugated through Mc-VC-PAB-DMEDA-PEG linker by cysteine conjugation; DAR about 7.8 for the whole antibody; conjugated cysteines not named", "notes": "the constant regions that carry the conjugated cysteines are not; also called antibody-drug conjugate 1"}, "B4": {"name": "900725 antibody (antibody, V domains shown)", "VH": "QVQLVQSGAEVKKPGASVKLSCKASGYTFTSYWIHWVRQAPGQGLEWIGMIHPNSGSTYYNEKFKGRATLTVDKSTSTAYMELSSLRSEDTAVYYCARYYGSDYEWYFDVWGQGTTVTVSS", "VL": "DIQMTQSPSSMSASVGDRVTITCKASQNVRTAVVWYQQKPGKAPKALIYLASNRHTGVPDRFSGSGSGTDFTLTISSLQPEDFATYFCLQHWNYPYTFGQGTKLEIK", "notes": "It was detected with anti-human IgG Fc; also called anti-CD73 antibody 900725"}, "B5": {"name": "BMS-986179 (antibody, human IgG1, kappa, L234A L235A, V domains shown)", "VH": "QVQLVESGGGVVQPGRSLRLSCAASGFTFSNYGMHWVRQAPGKGLEWVAVILYDGSNKYYPDSVKGRFTISRDNSKNTLYLQMNSLRAEDTAVYYCARGGSSWYPDSFDIWGQGTMVTVSS", "VL": "DIQMTQSPSSLSASVGDRVTITCRASQGISSWLAWYQQKPEKAPKSLIYAASSLQSGVPSRFSGSGSGTDFTLTISSLQPEDFATYYCQQYNSYPLTFGGGTKVEIKR", "notes": "also called CD73 positive control antibody BMS-986179"}}}
{"biological_target": "T1, human CD73 protein (ACRO Biosystems, Cat. No. CD3-H52H7) (human, UniProt P21589 27-547)", "T1 sequence (looked up)": "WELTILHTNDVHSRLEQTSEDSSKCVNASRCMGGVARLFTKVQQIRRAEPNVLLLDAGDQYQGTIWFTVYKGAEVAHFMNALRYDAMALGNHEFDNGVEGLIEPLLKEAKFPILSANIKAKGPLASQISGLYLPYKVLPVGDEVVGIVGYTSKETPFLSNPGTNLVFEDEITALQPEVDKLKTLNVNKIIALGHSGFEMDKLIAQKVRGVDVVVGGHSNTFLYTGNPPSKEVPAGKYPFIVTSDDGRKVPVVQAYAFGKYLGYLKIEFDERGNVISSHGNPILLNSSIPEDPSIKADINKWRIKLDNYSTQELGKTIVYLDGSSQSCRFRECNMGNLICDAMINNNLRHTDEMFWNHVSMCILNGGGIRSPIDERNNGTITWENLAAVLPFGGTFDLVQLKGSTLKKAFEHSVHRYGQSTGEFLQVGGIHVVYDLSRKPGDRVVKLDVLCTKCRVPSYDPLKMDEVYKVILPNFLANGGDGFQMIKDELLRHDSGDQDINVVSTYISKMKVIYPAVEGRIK", "experiment": "cell-based or functional assay", "units": {"IC50, inhibition of the enzymatic activity of recombinant CD73 (AMP/ATP, CellTiter-Glo signal)": "µg/mL"}}
{"binder": "B1", "IC50, inhibition of the enzymatic activity of recombinant CD73 (AMP/ATP, CellTiter-Glo signal)": 0.352}
{"binder": "B2", "IC50, inhibition of the enzymatic activity of recombinant CD73 (AMP/ATP, CellTiter-Glo signal)": 0.553}
{"binder": "B3", "IC50, inhibition of the enzymatic activity of recombinant CD73 (AMP/ATP, CellTiter-Glo signal)": 0.587}
{"biological_target": "T2, CD73 on the surface of Calu6 cells (UniProt P21589 27-549)", "T2 sequence (looked up)": "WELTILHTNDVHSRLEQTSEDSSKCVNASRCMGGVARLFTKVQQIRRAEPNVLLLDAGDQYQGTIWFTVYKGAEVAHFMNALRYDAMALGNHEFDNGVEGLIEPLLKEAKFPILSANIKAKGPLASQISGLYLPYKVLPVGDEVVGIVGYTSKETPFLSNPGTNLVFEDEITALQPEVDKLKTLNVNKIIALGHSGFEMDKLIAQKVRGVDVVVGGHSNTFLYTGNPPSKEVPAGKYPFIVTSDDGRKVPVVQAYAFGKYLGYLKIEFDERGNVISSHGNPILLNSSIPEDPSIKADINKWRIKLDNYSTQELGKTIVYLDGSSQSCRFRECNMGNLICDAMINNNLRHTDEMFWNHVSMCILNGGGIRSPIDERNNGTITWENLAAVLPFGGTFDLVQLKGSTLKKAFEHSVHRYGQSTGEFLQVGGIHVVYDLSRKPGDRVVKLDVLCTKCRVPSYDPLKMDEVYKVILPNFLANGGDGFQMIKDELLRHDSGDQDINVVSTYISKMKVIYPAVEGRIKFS", "experiment": "cell-based or functional assay", "units": {"Endocytosis efficiency (%)": "%"}}
{"binder": "B1", "Endocytosis efficiency (%)": 95.4}
{"binder": "B2", "Endocytosis efficiency (%)": 95.8}
{"binder": "B3", "Endocytosis efficiency (%)": 95.6}
{"biological_target": "T2, CD73 on the surface of Calu6 cells", "experiment": "flow cytometry on Calu6 cells, antibody at 1 ug/mL, kept at 4 C, PE anti-human IgG Fc detection", "procedure": "The endocytosis efficiency of monoclonal antibodies 900698 and 900725 was compared through an endocytosis assay, with the procedures as follows: Anti-CD73 antigen-binding proteins such as the CD73 positive control antibody BMS-986179, 900698, and 900725 were diluted to 1 μg/mL with a PBS solution, with 2 replicate wells set up for each concentration. Calu6 cells in the logarithmic growth phase were taken and prepared into a cell suspension at 2× 10⁵ cells/mL. The cell suspension was then added at 100 μL (about 20000 cells) per well to a 96-well U-bottom plate and centrifuged at 300 g for 3 min, and then the supernatant was discarded. Then, the diluted antigen-binding proteins were each added at 100 μL/well to resuspend the cells, and the mixture was mixed uniformly and incubated at 4° C. for 30 min. After the incubation was completed, the mixture was centrifuged at 300 g for 3 min, and then the supernatant was discarded. The cells were then resuspended in 1% BSA, with half incubated at 37° C. and the other half at 4° C., for an incubation time of 5 h. After the incubation was completed, the wells corresponding to the specified time were removed. The cells in these wells were centrifuged at 300 g for 3 min, and then the supernatant was discarded. PE anti-hulgG Fc (1:200) was then added at 50 μL/well, and the mixture was mixed uniformly and allowed to react at 4° C. for 30 min. After the incubation was completed, the cells were washed twice and centrifuged at 300 g for 3 min, and the fluorescence intensity was detected by flow cytometry. The assay results for the endocytosis of CD73 on the cell surface induced by the anti-CD73 antigen-binding proteins are shown in Table 5 below and FIG. 9. […] 34%. In FIG. 9, the results for BMS-986179, 900725, and 900698 are represented as 1-3, respectively, and NC indicates the result for the condition that only a 1% BSA solution was added without any antibody or antibody-drug conjugate."}
{"binder": "B4", "fluorescence intensity at 4° C.": 13900}
{"binder": "B5", "fluorescence intensity at 4° C.": 25700}
{"binder": "B1", "fluorescence intensity at 4° C.": 8940}
{"biological_target": "T3, human CD73 expressed on CHOK1-huCD73-3F4 cells (human, UniProt P21589 27-549)", "T3 construct": "whole, on cells; also called cells expressing human CD73 (CHOK1-huCD73-3F4, Huabo Biopharm); CD73 antigen on the cell surface", "T3 sequence (looked up)": "T2 sequence (looked up)", "experiment": "flow cytometry (PE-MFI, PE-goat anti-human-Fc) on CHOK1-huCD73-3F4 cells expressing human CD73; four-parameter fit table under the curves, unit from the concentration axis", "procedure": "The binding activity of the antibody-drug conjugate 1 and the antibody-drug conjugate 2 prepared in Example 1 and the 900698 naked antibody to cells expressing human CD73 (CHOK1-huCD73-3F4, Huabo Biopharm) was assayed.\nAll antigen-binding proteins were diluted to 30 μg/mL with a solution of 1% BSA in PBS (1% BSA/PBS), followed by a 3-fold dilution across 10 gradients. The diluted proteins were each added at 20 μL per well to a 96-well U-bottom plate, with a negative control (adding only 1% BSA/PBS) set up simultaneously. A suspension of cells expressing human CD73 (CHOK1-huCD73-3F4, Huabo Biopharm) in the logarithmic growth phase was taken and centrifuged (1000 rpm×5 min), and then the culture medium was discarded. The cells were resuspended in 1% BSA/PBS until the viable cell density was 1×10⁶ cells/mL, then added at 20 μL (2×10⁴ cells) per well to the 96-well U-bottom plate containing the anti-CD73 antigen-binding proteins, and incubated at room temperature for reaction for 30 min. The reacted cells in the 96-well U-bottom plate were resuspended in 1% BSA/PBS and centrifuged (300 g×3 min), and then the supernatant was discarded. This washing process was performed once. Then, a 1:200 dilution of PE-goat anti-human-Fc (Jackson ImmunoResearch, #109-115-098) was added, and the cells were incubated in the dark at room temperature for reaction for 15 min. The reacted cells in the 96-well U-bottom plate were further resuspended in 1% BSA/PBS and centrifuged (300 g×3 min), and then the supernatant was discarded. This washing process was performed 3 times. Finally, the cells were resuspended in 100 μL of 1% BSA/PBS per well, and the fluorescence intensity in the PE channel was detected using a flow cytometer (BD, #Canto II).", "units": {"EC50": "µg/mL"}}
{"binder": "B1", "EC50": 1.01}
{"binder": "B2", "EC50": 0.67}
{"binder": "B3", "EC50": 0.659}
{"biological_target": "T4, monkey CD73 protein (Novoprotein, Cat. No. CI21) (monkey)", "T4 construct": "Bought protein", "experiment": "SPR (Biacore T200), antibody captured on protein A chip, CD73 as analyte, 1:1 model", "procedure": "(§1) The binding kinetics of the antibody-drug conjugate 1 and the antibody-drug conjugate 2 prepared in Example 1 and the 900698 naked antibody with a human CD73 protein (manufacturer: ACRO Biosystems, Cat. No. CD3-H52H7) and a monkey CD73 protein (manufacturer: Novoprotein, Cat. No. CI21) were assayed using Biacore (GE, model: T200), with an assay buffer of HBS-EP+ (pH 7.4) and a protein A chip (manufacturer: GE, Cat. No. 29-1275-56).\n(§2) The temperature for the sample compartment and the flow path was set to 25° C. The protein A chip captured each antigen-binding protein as a ligand, fixing about 100 RU. The human CD73 protein was diluted with the assay buffer to a series of concentrations of 50 nM, 25 nM, 12.5 nM, 6.25 nM, 3.12 nM, and 1.57 nM, serving as analytes, and the assay buffer was used as a 0 concentration control. At a flow rate of 30 μL/min, association was conducted for 120 s, and dissociation was conducted for 600 s. Glycine (10 mM, pH 1.5) was used for regeneration at a flow rate of 50 μL/min for 60 s in a multi-cycle kinetic assay. A 1:1 binding model was used, and the Fit Local mode was selected to determine the association rate constant (ka), dissociation rate constant (kd), and equilibrium dissociation constant (KD).", "units": {"Kd": "nM", "koff": "s⁻¹", "kon": "M⁻¹ s⁻¹"}}
{"binder": "B1", "Kd": 0.121, "koff": "1.8e-05", "kon": 148000}
{"binder": "B2", "Kd": 0.252, "koff": 0.000114, "kon": 454000}
{"binder": "B3", "Kd": 0.0349, "koff": "1.92e-06", "kon": 55000}
{"biological_target": "T1, human CD73 protein (ACRO Biosystems, …)", "experiment": "SPR (Biacore T200), antibody captured on protein A chip, CD73 as analyte, 1:1 model", "procedure": "as §1, §2", "units": {"Kd": "nM", "koff": "s⁻¹", "kon": "M⁻¹ s⁻¹"}}
{"binder": "B1", "Kd": 0.711, "koff": 0.000104, "kon": 147000}
{"binder": "B2", "Kd": 0.354, "koff": 0.000228, "kon": 643000}
{"binder": "B3", "Kd": 0.339, "koff": 0.000129, "kon": 381000}
{"biological_target": "T2, CD73 on the surface of Calu6 cells", "experiment": "cell-based or functional assay", "remark": "another data set of the same source", "units": {"Endocytosis efficiency (%)": "%"}}
{"binder": "B4", "Endocytosis efficiency (%)": 37.5, "fluorescence intensity of surface antibody after 5 h at 37° C. (flow cytometry, Calu6 cells)": 8710}
{"binder": "B5", "Endocytosis efficiency (%)": 44.2, "fluorescence intensity of surface antibody after 5 h at 37° C. (flow cytometry, Calu6 cells)": 14400}
{"binder": "B1", "Endocytosis efficiency (%)": 96.3, "fluorescence intensity of surface antibody after 5 h at 37° C. (flow cytometry, Calu6 cells)": 359}
